The record followed here is patent publication US20040018561.

Data set [1] deals with N-2-[(7-methoxy-2-oxo-2H-chromen-4-yl)acetyl]-D-arginyl-L-prolyl-L-leucylglycyl-6-phenoxy-L-norleucyl-3-[(2,4-dinitrophenyl)amino]-L-alanyl-L-alanyl-D-arginyl-D-alpha-glutamyl-D-argininamide.
The test system of data set [2] is N-2-[(7-methoxy-2-oxo-2H-chromen-4-yl)acetyl]-D-arginyl-L-prolyl-L-leucylglycyl-L-leucyl-3-[(2,4-dinitrophenyl)amino]-L-alanyl-L-alanyl-D-arginyl-D-alpha-glutamyl-D-argininamide.
Data set [3] concerns N-2-[(7-methoxy-2-oxo-2H-chromen-4-yl)acetyl]-L-arginyl-L-prolyl-L-leucylglycyl-L-leucyl-3-[(2,4-dinitrophenyl)amino]-L-alanyl-L-alanyl-D-arginyl-D-alpha-glutamyl-D-argininamide.
Data set [4] relates to N-2-[(7-methoxy-2-oxo-2H-chromen-4-yl)acetyl]-L-arginyl-L-prolyl-L-leucylglycyl-6-(benzyloxy)-L-norleucyl-3-[(2,4-dinitrophenyl)amino]-L-alanyl-L-alanyl-L-arginyl-L-alpha-glutamyl-L-argininamide.
Data set [5] concerns N-2-[(7-methoxy-2-oxo-2H-chromen-4-yl)acetyl]-L-arginyl-L-prolyl-L-leucylglycyl-L-leucyl-3-[(2,4-dinitrophenyl)amino]-L-alanyl-L-alanyl-L-arginyl-L-alpha-glutamyl-L-argininamide.
Data set [6] concerns N-2-[(7-methoxy-2-oxo-2H-chromen-4-yl)acetyl]-D-arginyl-L-prolyl-L-leucylglycyl-6-(benzyloxy)-L-norleucyl-3-[(2,4-dinitrophenyl)amino]-L-alanyl-L-alanyl-D-arginyl-D-alpha-glutamyl-D-argininamide.

Chain of MMP-8 (chain, as listed by the source): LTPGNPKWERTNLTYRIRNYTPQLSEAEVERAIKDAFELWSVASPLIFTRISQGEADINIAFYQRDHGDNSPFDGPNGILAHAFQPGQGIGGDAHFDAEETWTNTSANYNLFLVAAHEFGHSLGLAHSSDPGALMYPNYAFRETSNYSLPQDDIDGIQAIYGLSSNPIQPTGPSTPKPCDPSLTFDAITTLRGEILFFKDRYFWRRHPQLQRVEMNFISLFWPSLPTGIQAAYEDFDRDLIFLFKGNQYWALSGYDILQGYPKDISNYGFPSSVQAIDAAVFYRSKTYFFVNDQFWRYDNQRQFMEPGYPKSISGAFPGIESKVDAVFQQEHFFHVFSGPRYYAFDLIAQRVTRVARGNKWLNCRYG
Chain of MMP-9 (chain, as listed by the source): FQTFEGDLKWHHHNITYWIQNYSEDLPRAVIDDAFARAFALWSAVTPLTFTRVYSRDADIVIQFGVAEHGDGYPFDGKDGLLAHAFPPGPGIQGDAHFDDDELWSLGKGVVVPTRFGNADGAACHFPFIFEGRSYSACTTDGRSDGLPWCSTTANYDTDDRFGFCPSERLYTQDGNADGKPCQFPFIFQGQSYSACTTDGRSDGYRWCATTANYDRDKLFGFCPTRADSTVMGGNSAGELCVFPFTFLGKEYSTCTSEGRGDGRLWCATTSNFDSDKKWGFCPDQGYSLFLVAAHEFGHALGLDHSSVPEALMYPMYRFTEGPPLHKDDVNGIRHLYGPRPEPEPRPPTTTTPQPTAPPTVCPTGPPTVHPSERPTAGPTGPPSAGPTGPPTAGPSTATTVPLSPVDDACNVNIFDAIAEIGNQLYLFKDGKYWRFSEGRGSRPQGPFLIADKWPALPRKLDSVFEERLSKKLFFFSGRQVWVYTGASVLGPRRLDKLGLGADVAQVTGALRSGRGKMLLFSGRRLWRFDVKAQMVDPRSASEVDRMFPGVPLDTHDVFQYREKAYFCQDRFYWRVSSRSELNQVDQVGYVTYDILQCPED
Chain of MMP-3 (chain, as listed by the source): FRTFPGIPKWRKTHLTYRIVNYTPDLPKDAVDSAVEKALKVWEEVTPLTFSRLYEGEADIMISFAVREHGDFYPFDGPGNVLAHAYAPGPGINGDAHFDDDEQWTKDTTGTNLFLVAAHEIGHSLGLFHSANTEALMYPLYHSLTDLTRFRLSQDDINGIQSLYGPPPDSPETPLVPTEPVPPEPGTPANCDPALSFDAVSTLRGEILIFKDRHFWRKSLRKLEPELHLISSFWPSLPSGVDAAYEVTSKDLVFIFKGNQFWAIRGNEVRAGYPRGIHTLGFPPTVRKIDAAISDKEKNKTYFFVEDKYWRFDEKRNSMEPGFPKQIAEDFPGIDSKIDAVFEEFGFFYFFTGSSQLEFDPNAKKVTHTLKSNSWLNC

In general, Km refers to the substrate concentration at which the rate is half of its maximum. A word on the kcat/Km: it is the turnover number divided by the Michaelis constant. On to MMP-13, for which the Michaelis-Menten constant (Km) in data set [1] came out at 1.2 µM; in data set [2], 9 µM; in data set [3] it was 4.7 µM; in data set [4] it was 0.9 µM; in data set [5], 3.9 µM; in data set [6], 1.5 µM. Further, the specificity constant (kcat/Km) in data set [1] worked out at 2.93e+06 M⁻¹ s⁻¹; in data set [2], 296000 M⁻¹ s⁻¹; in data set [3] it was 4.08e+06 M⁻¹ s⁻¹; in data set [4] it was 4.24e+06 M⁻¹ s⁻¹; in data set [5] it was 3.92e+06 M⁻¹ s⁻¹; in data set [6], 1.58e+06 M⁻¹ s⁻¹.
In the case of MMP-3, the kcat/Km in data set [1] was found to be 0 M⁻¹ s⁻¹; in data set [2] it was 6300 M⁻¹ s⁻¹; in data set [3], 800 M⁻¹ s⁻¹; in data set [4] it was 4800 M⁻¹ s⁻¹; in data set [5], 9800 M⁻¹ s⁻¹; in data set [6], 1600 M⁻¹ s⁻¹. The Km stood at 14 µM in data set [2]; 59.5 µM in data set [3]; 85.9 µM in data set [4]; 38.7 µM in data set [5]; 28.9 µM in data set [6].
As to MMP-9, the Km in data set [1] stood at 1.4 µM; in data set [2], 6.4 µM; in data set [3], 8.2 µM; in data set [4], 2.3 µM; in data set [5] it was 6.2 µM; in data set [6], 3.3 µM. The kcat/Km in data set [1] turned out to be 1.91e+06 M⁻¹ s⁻¹; in data set [2] it was 418000 M⁻¹ s⁻¹; in data set [3] it was 1.33e+06 M⁻¹ s⁻¹; in data set [4], 1.47e+06 M⁻¹ s⁻¹; in data set [5], 1.29e+06 M⁻¹ s⁻¹; in data set [6] it was 319000 M⁻¹ s⁻¹.
For MMP-8, the Km amounted to 4.4 µM in data set [1]; 16.7 µM in data set [2]; 13.3 µM in data set [3]; 9.1 µM in data set [4]; 20.1 µM in data set [5]; 3.3 µM in data set [6]. The kcat/Km in data set [1] amounted to 522000 M⁻¹ s⁻¹; in data set [2], 139000 M⁻¹ s⁻¹; in data set [3], 456000 M⁻¹ s⁻¹; in data set [4], 179000 M⁻¹ s⁻¹; in data set [5] it was 381000 M⁻¹ s⁻¹; in data set [6] it was 146000 M⁻¹ s⁻¹.
